The values that follow come from article PMC11772769, “Selective cargo and membrane recognition by SNX17 regulates its interaction with Retriever” (EMBO Reports, 2024).

B1: unnamed (parent)
chain 1: MHFSIPETESRSGDSGGSAYVAYNIHVNGVLHCRVRYSQLLGLHEQLRKEYGANVLPAFPPKKLFSLTPAEVEQRREQLEKYMQAVRQDPLLGSSETFNSFLRRAQQETQQVPTEEVSLEVLLSNGQKVLVNVLTSDQTEDVLEAVAAKLDLPDDLIGYFSLFLVREKEDGAFSFVRKLQEFELPYVSVTSLRSQEYKIVLRKSYWDSAYDDDVMENRVGLNLLYAQTVSDIERGWILVTKEQHRQLKSLQEKVSKKEFLRLAQTLRHYGYLRFDACVADFPEKDCPVVVSAGNSELSLQLRLPGQQLREGSFRVTRMRCWRVTSSVPLPSGSTSSPGRGRGEVRLELAFEYLMSKDRLQWVTITSPQAIMMSICLQSMVDELMVKKSGGSIRKMLRRRVGGTLRRSDSQQAVKSPPLLESPDATRESMVKLSSKLSAVSLRGIGSPSTDASASDVHGNFAFEGIGDEDL
chain 2: not shown

Variants of B1 are the subject of the assay. Description: fluorescence anisotropy. To be noted: with partner chain of the complex shown; 5-FAM-labeled L2 14-mer peptide.
The Kd is the constant that tells how readily two partners part at equilibrium. Turning to chain 1 W321A, the dissociation constant (Kd) was found to be 76 µM.
With chain 1 H457A, the dissociation constant Kd came out at 1.1 µM.
